Assay results from article PMC5387740.

Biological target: osteopontin (UniProt P10451)
Sequence of UniProt P10451 (P10451 17-314): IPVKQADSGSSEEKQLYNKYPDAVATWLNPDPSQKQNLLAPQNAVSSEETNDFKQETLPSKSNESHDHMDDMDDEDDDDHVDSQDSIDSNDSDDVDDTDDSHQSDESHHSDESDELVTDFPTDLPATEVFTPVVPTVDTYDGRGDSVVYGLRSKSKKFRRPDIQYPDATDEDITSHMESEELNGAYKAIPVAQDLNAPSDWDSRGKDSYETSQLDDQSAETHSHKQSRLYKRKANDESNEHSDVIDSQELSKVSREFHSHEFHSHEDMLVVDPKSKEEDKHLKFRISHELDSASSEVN

PDGF-BB-stimulated fibroblast migration on osteopontin (monolayer wound closure, 24 h): inhibition by integrin αV blocking antibody in the panel of integrin blocking antibodies (Fig. 3B): 92% | PDGF-BB-stimulated fibroblast migration on osteopontin (monolayer wound closure, 24 h): reduction by integrin αV blocking antibody compared to control IgG (Fig. 3A): 91%
Substance: integrin alpha v (αV) (receptor)
